16 variants from IntAct's records for PubMed 25910212 can be followed below.

B1: Synaptogyrin-1 (Homo sapiens), O43759-2 (parent)
chain: MEGGAYGAGKAGGAFDPYTLVRQPHTILRVVSWLFSIVVFGSIVNEGYLNSASEGEEFCIYNRNPNACSYGVAVGVLAFLTCLLYLALDVYFPQISSVKDRKKAVLSDIGVSAFWAFLWFVGFCYLANQWQVSKPKDNPLNEGTDAARAAIAFSFFSIFTWSLTAALAVRRFKDLSFQEEYSTLFPASAQP
partner: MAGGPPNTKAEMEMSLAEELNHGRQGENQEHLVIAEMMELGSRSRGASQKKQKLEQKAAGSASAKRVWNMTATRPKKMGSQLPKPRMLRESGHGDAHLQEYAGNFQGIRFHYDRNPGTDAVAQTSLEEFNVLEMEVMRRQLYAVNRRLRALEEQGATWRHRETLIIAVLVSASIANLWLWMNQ
B2: Mitochondrial import inner membrane translocase subunit Tim8 A (Homo sapiens), O60220 (parent)
chain: MDSSSSSSAAGLGAVDPQLQHFIEVETQKQRFQQLVHQMTELCWEKCMDKPGPKLDSRAEACFVNCVERFIDTSQFILNRLEQTQKSKPVFSESLSD
B3: EF-hand domain-containing protein 1 (Homo sapiens), Q5JVL4 (parent)
chain: MVSNPVHGLPFLPGTSFKDSTKTAFHRSQTLSYRNGYAIVRRPTVGIGGDRLQFNQLSQAELDELASKAPVLTYGQPKQAPPADFIPAHVAFDKKVLKFDAYFQEDVPMSTEEQYRIRQVNIYYYLEDDSMSVIEPVVENSGILQGKLIKRQRLAKNDRGDHYHWKDLNRGINITIYGKTFRVVDCDQFTQVFLESQGIELNPPEKMALDPYTELRKQPLRKYVTPSDFDQLKQFLTFDKQVLRFYAIWDDTDSMYGECRTYIIHYYLMDDTVEIREVHERNDGRDPFPLLMNRQRVPKVLVENAKNFPQCVLEISDQEVLEWYTAKDFIVGKSLTILGRTFFIYDCDPFTRRYYKEKFGITDLPRIDVSKREPPPVKQELPPYNGFGLVEDSAQNCFALIPKAPKKDVIKMLVNDNKVLRYLAVLESPIPEDKDRRFVFSYFLATDMISIFEPPVRNSGIIGGKYLGRTKVVKPYSTVDNPVYYGPSDFFIGAVIEVFGHRFIILDTDEYVLKYMESNAAQYSPEALASIQNHVRKREAPAPEAESKQTEKDPGVQELEALIDTIQKQLKDHSCKDNIREAFQIYDKEASGYVDRDMFFKICESLNVPVDDSLVKELIRMCSHGEGKINYYNFVRAFSN
partner: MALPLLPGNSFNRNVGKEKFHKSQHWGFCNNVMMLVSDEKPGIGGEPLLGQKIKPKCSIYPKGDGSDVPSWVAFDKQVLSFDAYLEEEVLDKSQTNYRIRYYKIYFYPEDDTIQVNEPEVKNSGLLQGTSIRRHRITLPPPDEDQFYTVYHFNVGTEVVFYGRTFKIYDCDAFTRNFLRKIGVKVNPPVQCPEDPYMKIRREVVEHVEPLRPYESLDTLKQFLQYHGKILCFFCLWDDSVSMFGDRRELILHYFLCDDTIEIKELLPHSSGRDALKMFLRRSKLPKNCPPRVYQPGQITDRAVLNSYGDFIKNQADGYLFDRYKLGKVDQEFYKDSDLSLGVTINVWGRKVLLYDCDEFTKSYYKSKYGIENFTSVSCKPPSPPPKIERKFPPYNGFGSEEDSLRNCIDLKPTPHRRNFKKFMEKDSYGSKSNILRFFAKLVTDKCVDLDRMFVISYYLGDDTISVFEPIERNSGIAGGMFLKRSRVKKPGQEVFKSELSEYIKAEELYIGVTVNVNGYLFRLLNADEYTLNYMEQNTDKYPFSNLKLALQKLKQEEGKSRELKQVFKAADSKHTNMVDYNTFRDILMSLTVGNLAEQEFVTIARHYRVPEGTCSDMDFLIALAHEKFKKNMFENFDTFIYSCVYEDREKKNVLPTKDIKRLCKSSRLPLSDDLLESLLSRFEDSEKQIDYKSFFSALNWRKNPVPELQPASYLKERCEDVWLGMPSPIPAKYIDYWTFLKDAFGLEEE
B4: Inactive peptidyl-prolyl cis-trans isomerase FKBP6 (Homo sapiens), O75344 (parent)
chain: MGGSALNQGVLEGDDAPGQSLYERLSQRMLDISGDRGVLKDVIREGAGDLVAPDASVLVKYSGYLEHMDRPFDSNYFRKTPRLMKLGEDITLWGMELGLLSMRRGELARFLFKPNYAYGTLGCPPLIPPNTTVLFEIELLDFLDCAESDKFCALSAEQQDQFPLQKVLKVAATEREFGNYLFRQNRFYDAKVRYKRALLLLRRRSAPPEEQHLVEAAKLPVLLNLSFTYLKLDRPTIALCYGEQALIIDQKNAKALFRCGQACLLLTEYQKARDFLVRAQKEQPFNHDINNELKKLASCYRDYVDKEKEMWHRMFAPCGDGSTAGES
partner: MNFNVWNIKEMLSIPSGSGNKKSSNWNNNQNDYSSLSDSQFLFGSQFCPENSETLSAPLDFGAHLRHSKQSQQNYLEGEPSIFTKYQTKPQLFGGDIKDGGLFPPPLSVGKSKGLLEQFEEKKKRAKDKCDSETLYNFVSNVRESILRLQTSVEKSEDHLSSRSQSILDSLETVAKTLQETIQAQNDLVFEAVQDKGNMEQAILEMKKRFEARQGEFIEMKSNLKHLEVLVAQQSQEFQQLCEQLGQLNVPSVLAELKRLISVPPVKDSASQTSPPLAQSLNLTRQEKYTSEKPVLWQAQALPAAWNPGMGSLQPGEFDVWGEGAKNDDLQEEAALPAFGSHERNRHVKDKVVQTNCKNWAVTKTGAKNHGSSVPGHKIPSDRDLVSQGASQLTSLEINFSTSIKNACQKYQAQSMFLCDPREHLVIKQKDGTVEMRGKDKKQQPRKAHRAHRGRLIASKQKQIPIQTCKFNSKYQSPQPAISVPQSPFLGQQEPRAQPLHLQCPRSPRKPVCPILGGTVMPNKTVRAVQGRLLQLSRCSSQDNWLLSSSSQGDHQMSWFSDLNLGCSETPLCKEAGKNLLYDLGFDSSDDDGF
B5: EF-hand domain-containing protein 1 (Homo sapiens), Q5JVL4 (parent)
chain: B3 chain
partner: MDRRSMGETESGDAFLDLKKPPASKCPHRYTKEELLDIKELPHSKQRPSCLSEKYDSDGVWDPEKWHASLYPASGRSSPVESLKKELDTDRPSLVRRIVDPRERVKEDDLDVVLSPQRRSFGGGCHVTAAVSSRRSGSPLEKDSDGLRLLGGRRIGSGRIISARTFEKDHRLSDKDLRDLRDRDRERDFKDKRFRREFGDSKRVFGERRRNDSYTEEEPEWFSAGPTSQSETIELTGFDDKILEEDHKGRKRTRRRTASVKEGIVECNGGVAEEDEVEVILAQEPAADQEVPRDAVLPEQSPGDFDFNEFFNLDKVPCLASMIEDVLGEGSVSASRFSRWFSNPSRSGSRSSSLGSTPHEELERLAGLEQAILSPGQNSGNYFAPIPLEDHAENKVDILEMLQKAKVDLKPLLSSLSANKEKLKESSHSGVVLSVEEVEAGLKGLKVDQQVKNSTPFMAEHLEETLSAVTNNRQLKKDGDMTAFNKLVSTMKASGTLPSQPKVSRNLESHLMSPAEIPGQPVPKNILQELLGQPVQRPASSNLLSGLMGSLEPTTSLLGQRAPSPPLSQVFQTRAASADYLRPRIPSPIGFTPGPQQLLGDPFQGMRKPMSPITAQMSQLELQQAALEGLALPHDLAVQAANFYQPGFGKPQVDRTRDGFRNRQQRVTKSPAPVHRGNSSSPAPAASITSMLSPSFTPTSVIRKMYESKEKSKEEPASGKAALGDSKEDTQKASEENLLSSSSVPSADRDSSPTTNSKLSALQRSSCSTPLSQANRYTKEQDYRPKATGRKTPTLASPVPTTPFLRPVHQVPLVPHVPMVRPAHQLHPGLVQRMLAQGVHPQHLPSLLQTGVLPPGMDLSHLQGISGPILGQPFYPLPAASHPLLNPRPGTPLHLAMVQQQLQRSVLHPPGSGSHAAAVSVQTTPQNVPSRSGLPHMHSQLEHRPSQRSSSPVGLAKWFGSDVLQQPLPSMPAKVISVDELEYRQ
B6: Multifunctional procollagen lysine hydroxylase and glycosyltransferase LH3 (Homo sapiens), O60568 (parent)
chain: MTSSGPGPRFLLLLPLLLPPAASASDRPRGRDPVNPEKLLVITVATAETEGYLRFLRSAEFFNYTVRTLGLGEEWRGGDVARTVGGGQKVRWLKKEMEKYADREDMIIMFVDSYDVILAGSPTELLKKFVQSGSRLLFSAESFCWPEWGLAEQYPEVGTGKRFLNSGGFIGFATTIHQIVRQWKYKDDDDDQLFYTRLYLDPGLREKLSLNLDHKSRIFQNLNGALDEVVLKFDRNRVRIRNVAYDTLPIVVHGNGPTKLQLNYLGNYVPNGWTPEGGCGFCNQDRRTLPGGQPPPRVFLAVFVEQPTPFLPRFLQRLLLLDYPPDRVTLFLHNNEVFHEPHIADSWPQLQDHFSAVKLVGPEEALSPGEARDMAMDLCRQDPECEFYFSLDADAVLTNLQTLRILIEENRKVIAPMLSRHGKLWSNFWGALSPDEYYARSEDYVELVQRKRVGVWNVPYISQAYVIRGDTLRMELPQRDVFSGSDTDPDMAFCKSFRDKGIFLHLSNQHEFGRLLATSRYDTEHLHPDLWQIFDNPVDWKEQYIHENYSRALEGEGIVEQPCPDVYWFPLLSEQMCDELVAEMEHYGQWSGGRHEDSRLAGGYENVPTVDIHMKQVGYEDQWLQLLRTYVGPMTESLFPGYHTKARAVMNFVVRYRPDEQPSLRPHHDSSTFTLNVALNHKGLDYEGGGCRFLRYDCVISSPRKGWALLHPGRLTHYHEGLPTTWGTRYIMVSFVDP
partner: B3 partner

Variants of B1 are the subject of one assay. The note with it: with fate1_human FATE1, Q969F0.
MEGGAYGAGKAGGAFDPYTLVRQPHTILRVVSWLFSIVVFGSIVNEGYLNSASEGEEFCIYNRNPNACSYGVAVGVLAFLTCLLYLALDVYFPQISSVEDRKKAVLSDIGVSAFWAFLWFVGFCYLANQWQVSKPKDNPLNEGTDAARAAIAFSFFSIFTWSLTAALAVRRFKDLSFQEEYSTLFPASAQP [K99E]: the “effect of a mutation on the interaction” value is on record as “disrupting interaction strength”.

Another assay covers variants of B2. The note with it: with stam2_human STAM2, O75886.
For the variant MDSSSSSSAAGLGAVDPQLQHFIEVETQKQRFQQLVHQMTELCWEKCMDKPGPKLDSRAEACFVNWVERFIDTSQFILNRLEQTQKSKPVFSESLSD [C66W], the “effect of a mutation on the interaction” value is recorded as “disrupting interaction strength”.

The variants in another assay derive from B3. The note with it: with efhc2_human EFHC2, Q5JST6.
With T508R, the “effect of a mutation on the interaction” value was “with no effect”.

As for R159W, the “effect of a mutation on the interaction” value is “with no effect”.

As to A394S, the “effect of a mutation on the interaction” value was “disrupting interaction strength”.

Regarding P77T, the “effect of a mutation on the interaction” value was “disrupting interaction strength”.

With M448T, the “effect of a mutation on the interaction” value is listed as “with no effect”.

Take R221H: the “effect of a mutation on the interaction” value is “disrupting interaction strength”.

The variants in the next assay derive from B4. The conditions noted are these: with iho1_human IHO1, Q8IYA8.
As for MGGSALNQGVLEGDDAPGQSLYERLSQRMLDISGDRGVLKDVIREGAGDLVAPDASVLVKYSGYLEHMDRPLDSNYFRKTPRLMKLGEDITLWGMELGLLSMRRGELARFLFKPNYAYGTLGCPPLIPPNTTVLFEIELLDFLDCAESDKFCALSAEQQDQFPLQKVLKVAATEREFGNYLFRQNRFYDAKVRYKRALLLLRRRSAPPEEQHLVEAAKLPVLLNLSFTYLKLDRPTIALCYGEQALIIDQKNAKALFRCGQACLLLTEYQKARDFLVRAQKEQPFNHDINNELKKLASCYRDYVDKEKEMWHRMFAPCGDGSTAGES [F72L], the “effect of a mutation on the interaction” value is given as “with no effect”.

In a further assay the parent is B5. The note with it: with 4et_human EIF4ENIF1, Q9NRA8.
For the variant R221H, the “effect of a mutation on the interaction” value is “disrupting interaction strength”.

With R159W, the “effect of a mutation on the interaction” value is “with no effect”.

On to P77T, for which the “effect of a mutation on the interaction” value is “disrupting interaction strength”.

With T508R, the “effect of a mutation on the interaction” value is reported as “disrupting interaction strength”.

Regarding M448T, the “effect of a mutation on the interaction” value is “with no effect”.

With A394S, the “effect of a mutation on the interaction” value is on record as “disrupting interaction strength”.

The variants in the next assay derive from B6. The note with it: with efhc2_human EFHC2, Q5JST6.
As for N223S, the “effect of a mutation on the interaction” value is listed as “with no effect”.
